In publication PMC4794571:

How the values were obtained:
[1] = biological target: Cy3-IgE (direct labeling) (UniProt P01854); assay: microarray fluorescence; details: direct label, PBSMTB for IgE microarrays (full recipe not in material; PBS-based wash: 8.1 mM Na2HPO4, 137 mM NaCl, 1 mM MgCl2, pH 7.4), temperature not stated, thrombin …
[2] = biological target: biotin-IgE (indirect labeling) (UniProt P01854); assay: microarray fluorescence; details: indirect label, PBSMTB for IgE microarrays (full recipe not in material; PBS-based wash: 8.1 mM Na2HPO4, 137 mM NaCl, 1 mM MgCl2, pH 7.4), temperature not stated, thrombin …
[3] = biological target: IgE (cited assays) (human) (UniProt P01854); assay: SPR; details: PBSMTB for IgE microarrays (full recipe not in material; PBS-based wash: 8.1 mM Na2HPO4, 137 mM NaCl, 1 mM MgCl2, pH 7.4), temperature not stated, thrombin …, cited from earlier work
[4] = biological target: IgE (cited assays) (human) (UniProt P01854); assay: fluorescence anisotropy; details: not immobilized; PBSMTB for IgE microarrays (full recipe not in material; PBS-based wash: 8.1 mM Na2HPO4, 137 mM NaCl, 1 mM MgCl2, pH 7.4); temperature not stated; thrombin …; cited from earlier work
[5] = biological target: IgE (cited assays) (human) (UniProt P01854); assay: filter binding; details: PBSMTB for IgE microarrays (full recipe not in material; PBS-based wash: 8.1 mM Na2HPO4, 137 mM NaCl, 1 mM MgCl2, pH 7.4), temperature not stated, thrombin …, cited from earlier work
[6] = A linker, A linker to array surface
[7] = T linker, T linker to array surface
[8] = G linker, G linker to array surface
[9] = C linker, C linker to array surface

Question: With “GGGGCACGTTTATCCGTCCCTCCTAGTGGCGTGCCCC [IgE_17-4, A linker]” as the sequence, how does the Kd [1, 6] read?
Answer: Its Kd is 0.0637 µM.

Question: What about the Kd [2, 6] of the same sequence?
Answer: Its Kd is 0.0309 µM.

Question: With “GGGGCACGTTTATCCGTCCCTCCTAGTGGCGTGCCCC [IgE_17-4, cited assays]” as the sequence, how does the Kd ([3]; aptamer immobilized on surface) read?
Answer: The Kd was 0.0748 µM.

Question: What about the Kd ([3]; aptamer not immobilized) of the same sequence?
Answer: The Kd was 0.0047 µM.

Question: And the Kd [4]?
Answer: The Kd was 0.015 µM.

Question: What about the Kd ([5]; not immobilized) of the same sequence?
Answer: The Kd was 0.009 µM.

Question: With “CACGTTTATCCGTCCCTCCTAGTGGCGTG [IgE_17-1, cited assay]” as the sequence, how does the Kd ([5]; solution) read?
Answer: Its Kd is 0.082 µM.

Question: With “CACGTTTATCCGTCCCTCCTAGTGGCGTG [IgE_17-1 (IgE_D17-1)]” as the sequence, how does the Kd [2, 7] read?
Answer: Its Kd is 0.0734 µM.

Question: Which results are given for “TGGGCACGTTTATCCGTCCCTCCTAGTGGCGTGCCCC [IgE_D17-4_SM1]”?
Answer: Kd [1, 7]: 0.0799 µM; Kd [2, 7]: 0.0288 µM

Question: Which results are given for “GGGGCACGTTTATCCGTCCCTCCTAGTGGCGTGCCCC [IgE_17-4 (IgE_D17-4), T linker]”?
Answer: Kd ([1]; D/P 2.4, T linker 10-15, T linker to array surface): 0.0663 µM; Kd [2, 7]: 0.0295 µM

Question: With “AGGGCACGTTTATCCGTCCCTCCTAGTGGCGTGCCCT [IgE_D17-4_DM1_37]” as the sequence, how does the Kd [1, 7] read?
Answer: The Kd was 0.0823 µM.

Question: What about the Kd [2, 7] of the same sequence?
Answer: The Kd was 0.0299 µM.

Question: Which results are given for “GGGGCACGTTTATCCGTCCCTCCTAGTGGCGTGCCCC [IgE_17-4, G linker]”?
Answer: Kd [1, 8]: 0.0865 µM; Kd [2, 8]: 0.0295 µM

Question: For “GGGGCACGTTTATCCGTCCCTCCTAGTGGCGTGCCCC [IgE_17-4, C linker]”, which Kd [1, 9] is on record?
Answer: Its Kd is 0.0618 µM.

Question: What about the Kd [2, 9] of the same sequence?
Answer: Its Kd is 0.0308 µM.
